{"source": "patent CN116333149A", "about": "(UNIV HENAN URBAN CONSTRUCTION, dated 2023)", "binders": {"B1": {"name": "PCSK9单域抗体VHHH12 (VHH)", "VHH": "QVQLQESGGGLVQAGGSLRLSCAASGRTFSDYAVGWFRQAPGKEREFVAGIGWSGGQTTYADSVKGRFTISRDNAKDTVYLQMNSLKPEDTAVYVCAASFLVIPGTVKTRYDSWGQGTQVTVPA", "notes": "Alpaca VHH expressed from pMECS in E. coli HB2151 and purified on a Ni column; also called 抗PCSK9单域抗体VHHH12; PCSK9单域抗体蛋白VHHH12; not shown: C-terminal tags from the pMECS vector (HA tag, detected with anti-HA antibody)"}}, "target": "PCSK9抗原 (前蛋白转化酶枯草溶菌素9, Proprotein convertase subtilisin/kexin type 9)", "assay": "SPR, Biacore T200, PCSK9 coupled to CM5 chip (~790 RU), VHH as analyte 218-13.5 nM"}
{"binder": "B1", "values": [{"measurement": "Kd", "result": 2.63, "unit": "nM"}, {"measurement": "koff", "result": 0.000584, "unit": "s⁻¹"}, {"measurement": "kon", "result": 222000, "unit": "M⁻¹ s⁻¹"}]}
